Read-outs that look alike come from different tables or passages of the source. *1 amine or outer side, *2 acyl side, *3 side chain or, on linkers, in order; H or OH if unused. Where a SMILES comes first, the peptide text is derived from it. [ ]: non-standard residue; d: D form. The star is where a group is joined. Dolaproine = CO[C@@H]([C@@H]1CCCN1)[C@@H](C)C(=O)O; Dil = CC[C@H](C)[C@H](NC)[C@@H](CC(=O)O)OC; PABC = O=C(OCc1ccc(N[*:1])cc1)[*:2]; Doe = c1ccc(C[C@H](N*)c2nccs2)cc1; Cit = NC(=O)NCCC[C@H](N)C(=O)O; X1 = NCCOCCOCCOCCOCCOCC*; Aib = CC(C)(N)C(=O)O; Ethyl(2-NH2) = NCC*; X3 = NCCOCC*
Legend:
mouse plasma enzyme = biological target: T1, mouse plasma enzyme (Mus musculus, UniProt P23953); assay type: biochemical
T1 construct: 100-200 ug of ADC were incubated in mouse plasma (provided by Bioreclamation); tissue Bioreclamation; host or cells: mouse plasma
T1 sequence (P23953 19-554): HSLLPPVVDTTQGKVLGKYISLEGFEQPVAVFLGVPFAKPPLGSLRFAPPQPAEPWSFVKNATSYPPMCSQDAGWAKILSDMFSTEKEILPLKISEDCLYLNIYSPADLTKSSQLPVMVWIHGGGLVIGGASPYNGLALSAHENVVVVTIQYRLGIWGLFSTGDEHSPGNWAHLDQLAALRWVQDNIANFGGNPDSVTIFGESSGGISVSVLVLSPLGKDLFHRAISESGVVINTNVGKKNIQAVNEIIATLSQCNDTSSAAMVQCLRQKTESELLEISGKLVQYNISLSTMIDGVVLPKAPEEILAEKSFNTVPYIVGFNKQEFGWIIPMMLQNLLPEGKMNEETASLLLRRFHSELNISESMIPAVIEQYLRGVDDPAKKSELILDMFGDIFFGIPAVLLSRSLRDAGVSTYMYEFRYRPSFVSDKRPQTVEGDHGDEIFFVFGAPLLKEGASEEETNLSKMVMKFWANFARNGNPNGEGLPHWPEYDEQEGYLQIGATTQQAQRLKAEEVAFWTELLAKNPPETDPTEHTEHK
Excerpt: First, Balb/c serum (BioreclamationIVT) was depleted of IgG and albumin using commercially available MabSelect Protein A and Protein G resins (GE Healthcare), followed by Qproteome Murine Albumin Depletion Kit (Qiagen). The depleted serum was then subjected to sequential precipitation with ammonium sulfate. Fractions with the highest linker hydrolase activity were then applied to cation exchange HiTrap SP column (GE Healthcare) using step gradient elutions with sodium chloride. After that, SP fractions with the highest activity were applied to anion exchange HiTrap Q column (GE Healthcare) using step gradient elutions with sodium chloride. Fractions with the highest hydrolase activity were then combined and size fractionated using Superdex 200 column (GE Healthcare). […] To verify the correct identification of mouse Carboxylesterase 1C as the plasma enzyme responsible for linker cleavage, the recombinant protein was expressed in Expi 293 cells, and purified using a HIS tag following standard protocols.

[1] = In Vitro Stability Assay—Mouse Plasma; assay type: in vitro ADME; conditions: for Conjugate stability (%): % DAR remaining after plasma 3 or 4.5 days; for DAR: before plasma incubation
Method: 100-200 ug of ADC were incubated in mouse plasma (provided by Bioreclamation) supplemented with 1×PBS to the final ADC concentration of 0.125 mg/mL. Following incubation for 3-7 days, samples were diluted with an equal volume of 1×PBS, and ADCs were isolated using Trop2 antigen coupled to CNBr-activated Sepharose (GE Healthcare) using standard protocols. Drug-antibody ratios were assessed before and after in vitro exposure using HIC methods and mass spectrometry.
DAR values for conjugates purified after plasma incubation were compared to DAR values prior to plasma treatment.

[2] = Stability in SCID mouse plasma of linker-payloads conjugated to Combo_Rd4_0.6nM_C29 anti-BCMA antibody; assay type: in vitro ADME; conditions: LCQ05 tag
[3] = Trop-2 antibody attachment position TG6, HIC or mass spectrometry

O=[N+]([O-])c1ccc(OP(=O)(O)Oc2ccc([N+](=O)[O-])cc2)cc1 [BNPP]
inhibition of the mouse plasma enzyme (linker cleavage) (mouse plasma enzyme): inhibited

CC[C@H](C)[C@@H]([C@@H](CC(=O)N1CCC[C@H]1[C@H](OC)[C@@H](C)C(=O)N[C@@H](Cc1ccccc1)c1nccs1)OC)N(C)C(=O)[C@@H](NC(=O)C(C)(C)NC(=O)OCc1ccc(NC(=O)[C@H](CCCNC(N)=O)NC(=O)[C@@H](NC(=O)[C@@H](COCCN)NC(C)=O)C(C)C)cc1)C(C)C [Example 46, N-acetyl-O-(2-aminoethyl)-D-seryl-L-valyl-N-{4-[(8S,11S,12R)-11-[(2S)-butan-2-yl]-12-(2-{(2S)-2-[(1R,2R)-1-methoxy-2-methyl-3-oxo-3-{[(1S)-2-phenyl-1-(1,3-thiazol-2-yl)ethyl]amino}propyl]pyrrolidin-1-yl}-2-oxoethyl)-5,5,10-trimethyl-3,6,9-trioxo-8-(propan-2-yl)-2,13-dioxa-4,7,10-triazatetradec-1-yl]phenyl}-N˜5˜-carbamoylornithinamide] (Ac-[dS](Ethyl(2-NH2))V[Cit][PABC][Aib]V[Dil][Dolaproine]-Doe)
DAR after plasma incubation for 3 to 4.5 days ([1]; attachment position L11B): 0.69 | Conjugate stability (%) ([1]; attachment position L11B): 51% | DAR ([1]; attachment position L11B): 1.36

CC[C@H](C)[C@@H]([C@@H](CC(=O)N1CCC[C@H]1[C@H](OC)[C@@H](C)C(=O)N[C@@H](Cc1ccccc1)c1nccs1)OC)N(C)C(=O)[C@@H](NC(=O)C(C)(C)NC(=O)OCc1ccc(NC(=O)[C@H](CCCNC(N)=O)NC(=O)[C@@H](NC(=O)[C@H](COCCOCCN)NC(C)=O)C(C)C)cc1)C(C)C [Example 47, N-acetyl-O-[2-(2-aminoethoxy)ethyl]-L-seryl-L-valyl-N-{4-[(8S,11S,12R)-11-[(2S)-butan-2-yl]-12-(2-{(2S)-2-[(1R,2R)-1-methoxy-2-methyl-3-oxo-3-{[(1S)-2-phenyl-1-(1,3-thiazol-2-yl)ethyl]amino}propyl]pyrrolidin-1-yl}-2-oxoethyl)-5,5,10-trimethyl-3,6,9-trioxo-8-(propan-2-yl)-2,13-dioxa-4,7,10-triazatetradec-1-yl]phenyl}-N˜5˜-carbamoylornithinamide] (Ac-S(X3)V[Cit][PABC][Aib]V[Dil][Dolaproine]-Doe)
DAR after plasma incubation for 3 to 4.5 days ([1]; attachment position L11B): 0.40 | Conjugate stability (%) ([1]; attachment position L11B): 20% | DAR ([1]; attachment position L11B): 1.96

CC[C@H](C)[C@@H]([C@@H](CC(=O)N1CCC[C@H]1[C@H](OC)[C@@H](C)C(=O)N[C@@H](Cc1ccccc1)c1nccs1)OC)N(C)C(=O)[C@@H](NC(=O)C(C)(C)NC(=O)OCc1ccc(NC(=O)[C@H](CCCNC(N)=O)NC(=O)[C@@H](NC(=O)[C@H](COCCOCCOCCOCCOCCOCCN)NC(C)=O)C(C)C)cc1)C(C)C [Example 48, N-acetyl-O-(17-amino-3,6,9,12,15-pentaoxaheptadec-1-yl)-L-seryl-L-valyl-N-{4-[(8S,11S,12R)-11-[(2S)-butan-2-yl]-12-(2-{(2S)-2-[(1R,2R)-1-methoxy-2-methyl-3-oxo-3-{[(1S)-2-phenyl-1-(1,3-thiazol-2-yl)ethyl]amino}propyl]pyrrolidin-1-yl}-2-oxoethyl)-5,5,10-trimethyl-3,6,9-trioxo-8-(propan-2-yl)-2,13-dioxa-4,7,10-triazatetradec-1-yl]phenyl}-N˜5˜-carbamoylornithinamide] (Ac-S(X1)V[Cit][PABC][Aib]V[Dil][Dolaproine]-Doe)
DAR after plasma incubation for 3 to 4.5 days ([1]; attachment position L11B): 0 | Conjugate stability (%) ([1]; attachment position L11B): 0% | DAR ([1]; attachment position L11B): 1.94

Cl.NCCc1ccc(S(=O)(=O)F)cc1 [Pefabloc]
inhibition of the mouse plasma enzyme (linker cleavage) (mouse plasma enzyme; 1 mM, in vitro stability assay with anti-Trop2 L11B C6 vc0101 conjugate as substrate): inhibited

Ac-Lys-Val-Cit-PABC-0101 [reference compound]
DAR after plasma incubation for 3 to 4.5 days ([1]; attachment position H16): 1.96 | Conjugate stability (%) ([1]; attachment position H16): 100% | DAR ([1]; attachment position H16): 1.94 | DAR ([2]; Combo_Rd4_0.6nM_C29 anti-BCMA antibody, before incubation, HIC): 2.0 | Conjugate stability (%) ([2]; anti-BCMA antibody, % DAR remaining after SCID mouse plasma 4.5 days): 99% | DAR after plasma incubation for 4.5 days ([2]; anti-BCMA antibody, SCID mouse plasma): 1.98

AcLys-vc0101 [Example 11, reference compound]
DAR ([1]; attachment position H7C): 1.90 | DAR ([1]; attachment position H8A): 1.82 | DAR ([1]; attachment position H10): 1.62 | DAR ([1]; attachment position L11B): 1.87 | DAR ([1]; attachment position LCQ04): 1.88

AcLys-vcMMAD [Example 9, reference compound]
DAR [1, 3]: 1.97

C6vc0101 [Example 10, reference compound]
DAR [1, 3]: 1.98 | DAR ([1]; attachment position H7C): 1.52 | DAR ([1]; attachment position H8A): 1.78 | DAR ([1]; attachment position H10): 1.72 | DAR ([1]; attachment position H16): 2.00 | DAR ([1]; attachment position L11B): 1.88 | DAR ([1]; attachment position LCQ04): 1.90 | DAR ([1]; attachment position N297A): 1.89 | DAR ([1]; attachment position N297Q): 3.94

Reference: patent US10967068B2, “Stability-modulating linkers for use with antibody drug conjugates” (priority 2014, dated 2021)
